Measured values taken from article PMC2928020.

Biological target: FITC-labeled alanine-extended version of the β2AR C-terminal peptide (TNDSLLA) (human)
Assay: fluorescence polarisation

Kd: > 100 µM
Substance: SNX27 PDZ domain, wild type (residues 39-131 of rat SNX27) (from UniProt Q8K4V4 39-131) (domain or fragment)
